Ten sequences from a protein production outcome set (Wang et al. 2014) can be followed below.

A short description of the series: label from the status in PepcDB records.

For “MANYPKELPAQTQSRQPGIESEMNPSPVYEYEDYKGADKLKGKVALITGGDSGIGRAVSVAYAKEGADIAIVYKDEHEDAEETKKRVEQEGVKCLLIAGDVGEEEFCNEAVEKTVKELGGLDILVNNAGEQHPKESIKDITSEQLHRTFKTNFYSQFYLTKKAIDYLKPGSAIINTTSINPYVGNPTLIDYTATKGAINAFTRTMAQALVKDGIRVNAVAPGPIWTPLIPATFPEETVAQFGQDTPMGRPGQPVEHVGCYVLLASD”, the protein production entry is reported as “not failed”.

“MAPACTTVHRRRAPLAAVLMLSLLPVLSPHADAAQVPWHSRTFKYVADNKDLKEVLRDLSASQSIATWISPEVTGTLSGKFETSPQKFLDDLAATYGFVWYYDGAVLRIWGANESKSATLSLGTASTKSLRDALARMRLDDPRFPVRYDETAHVAVVSGPPGYVDTVSAIAKQVEQGARQRDATEVQVFQLHYAQAADHTTRIGGQDVQIPGMASLLRSMYGARGAPVAAIPGPGANFGRVQPIGGGSSNTFGNAAQGQGGGASGILGLPSSWFGGASSSDRVPVSPPLPGSGTAATAGSPASVWPELSKGRRDESTPIDAGGGAELASDAPVIEADPRTNTILIRDRPERMQSYGTLIQQLDNRPKLLQIDATIIEIRDGAMQDLGVDWRFHSQHTDIQTGNGSGGQLGFNGALSGAATDGATTPAGGTLTAVLGDAGRYLMTRVSALETTNKAKIVSSPQVATLDNVEAVMDHKQQAFVRVSGYASADLYNLSAGVSLRVLPSVVPGSPNGQMRLDVRIEDGQLGSNTVDGIPVITSSEITTQAFVNEGQSLLIAGYAYDADETDLNAVPGLSKIPLLGNLFKHRQKSGSRMQRLFLLTPHVVSP”: the protein production result was “failed”.

For the sequence “MAPDQQVPATALGKSSRISLDGRRSERSVILADGSMHSLTLLHPGVYTLSSEVAETIRVLSGMAYYHAEGANDVQELHAGDSMVIPANQSYRLEVMEPLDYLLSS”, the protein production result was “not failed”.

As to “MAPFSSSSAEIKIARTAPFSSSAENKGNRQINGASSSASSCDAENAKSGGSRQLGKAAYMEGKHVDALQIFMWMHRKEMSFSTSEVALFVDIIGNTIGIAAAHSYLKKVDPNCDQMHNRTENWPAFVSLVKLETKLLKENGIVHATRPPK”, the protein production result is given as “failed”.

With “MAPGAAQELQAKLAEIGAPIQGNREELVERLQSYTRQTGIVLNRPVLRGEDGDKAAPPPMSAQ”, the protein production result is reported as “failed”.

As for “MAPHPEAAALLARSHRLGADPRNTNYAGGNASAKGTATDPVTGGDVELMWVKGSGGDLGTLTEAGLAVLRLDRLHALKGVYPGVEREDEMVAAFDYCLHGKGGAAPSIDTAMHGLVDAAHVDHLHPDSGIALACAADGEKLTAECFGDSVAWVPWRRPGFQLGLDIAAVKEANPQTIGCVLGGHGITAWGATAEECERNSLHIIRTAEAFLAERGKAEPFGPLEHHHHHH”, the protein production result is given as “failed”.

On to “MAPKAQKSPKGQRKGKKKTKQQSLVSEEEEPMNMESMDVAPGSSPDLDISMASDGHPEIYPLVLTAKTQEIFNCRIDEDMTDEQTYKLIKKEDILADLQNRAAVSDFHPVKKIVLEYPGEELLLVYDKDFKYGLNFYLIGTEEGKENFLKAPEIPEEQEDLKEHVPEDVYIYKPPVSKPWISLGSEKEIEEESVQESKKRVTYMISRKRSQFGAPVTFRDQNASSVKDAYIECTSYPDKSYTLTQVEKDIGLQVIAEVKDTSTQTRWAFPRNATTQYYPREFSEEEKNVLVESKSLAEFFSTVSTSVEIALQQNEIMNTFTDDWRSLAEEESTFGDKTDTHLKEYQSFTDLHNTMEKMITCVSWHPTIYGLIVVSVAVRLSYEERVQNSSRLLLQPSLILFWSFSDPIHPQLMLESPDDIFCFEFCPSDPNIIAGGCINGQIILWDITAHAERIENIKTGGSRSKKATLKPMFLLEPDSNKEIMYVRHCAVSSIENGHRKVITDIHWLPDSFEINRMGSVFENRSGINCQLITCSADCTICFWDIRPQKPTVTSAATATTTSTTNTNPQQPPAEKKKEESIEIPFDVPSTFLHLDLSWKPLSRIKLSKGETSLDHCPTKLSLGEDPALCKIQDKMLSQMKLLKAAEINPYQNLEGGMANMLKPIEDFRTKFFVGTEEGEVIYTDWKMERDSETGRLMAKKPVNLYTVHDGAVHTVQRSPFFNDIILTVGGWNVAIWKEEVLTGPLLQTCCAPKRYTAGHWSLTRPGVFYIGREDGYVDIWDLLEKTHEPAQSQSICITMITYIKPWTFSCRPPFLPQADRSMMVSLLMSMRHSAKPSGDQNPVSSVNYYFEREVKHLEYVQQRKEIREEEKKAMAMEMIKKKAKTYHRSKEQMEAELKLEYESYLELEQSVLFALGLGKVSEKMSYLDLH”, for which the protein production result is listed as “failed”.

In the case of “MAPKKIGAGKGDSSILAKISNYDIVSQGRRAACDAVYVSKKLLKSTGKAAWIAGTTFLILAVPLILELEQDHRLGEIDFEQASLLGTPPVGAML”, the protein production result is given as “failed”.

For “MAPMIPHPPAVLAHRLSEGQRLATPLMRALMRATGTQVDAAIARTIAELGAHCGADRTRVYRIEAGQVLDCTHEWCRSGISEIRPEMQRIPLGTLDRWMPILRRGEPVDVPDLHGLPEDDPAKQQMARHGIRALVLMPLTAGTALTGVVGLSLFRARRPVDPAEMALLHSIAEAMGAALARRDAERRAVAARSAARDVARNLERLARVTELMTNLVIVTDVEQQIVWVNRAFERQTGHSLEAIRGRNFAEVVRGPGTDPGVCAAVAEAIRTCSSCEGETINYTAAGQPYWIRFNAHPLSDADGRYAGHASVETVITDRKVLERELATRNAFLTAVLQTSVSAIVALNAEGGIVYANDEARRLLVLQPHRGGLRMEAVLETLDGRPLPEADMPSALVRATGAPLHDLRYAIRRPDGQFGILSINAAPLPQAADDARIVISVTDITHAEASAERLRRQAAEDPLTGLANRRALADAVETRLTEAAPFALVMLDLDNFKAVNDLQRHDTGDAVLRIAADRLRAVAGADCLVARMGGDEFMVLAPGTDAASAPRLAEALRAAISAPIEVGRQPVHLAASAGIALHPEHGTSMALLMTGADIALHAAKRAGRNRSVLLSQAQFAAEARRSAITQALAADVEADLRLVFQPQFRACGAFDGAEALLRWTDPRLGEIGPAEFIPIAEEAGLIQRIDAHVAVLAARQLGLWARRGWRHRLAVNASAQTFARAGFAEELLQHLAEEDVCPQQLVVELTDTSLATLSSVADHNIATLRRAGVGIAIDDFGTGYASLSYLHRIEATEIKIDRGFVAGLETAERRDSKPLIQAILSLAHALGLAVTAEGVETERQRSWLSAEGCDRLQGYLLGRPLPVEAFEAAFVTPAAVPG”, the protein production result is reported as “failed”.

Consider “MAPPAQKGNLRKRSGKTSTAVNSAINENVRKLVRSLSEPGTSQKKLRQMEDTALKIIANQRRTWAPTTTDMEVKRNLDDLAERFRAEGMASFGESIKDLAIRYLAMDENQQQFNPNPGWQMLELLFRIADRPVQKIRLNREFMEQRRLSIINSMEEAERQAQIEEQAKLEAAKNTSETEVDWAALLSEDFLDPPEDDSSDSLSDWSEESDCDSTTTLKPDENIGVSRSLLEMARVYEQAMMAVVPTGSVNKTYMPPEQSVIRSYDFRIMKPTVLSLNNLKGSHLRRSKLLQLPPPQPPRPFTQYWQSGNTDTLFRKIHSHWWCQDVHLNALPSSAKPLDNFAVSYVQFLNHNARGLLALPVPKTITEPCLLREILFMFVRPASCCFFEFDKATRRITVRDNVSICTVTASTMQNFLLFNVVPALEDMMELRHIIDTHTLHFHGVKTTYTVEFFAYGLRDLVQPICQLLIAYEDRVNKDPAKNTLIRFTIEFREHFSQLRLLRELAEDVILDKGPAHIRSAYLLSRLYKHTLLQVPHQKLATALLFISLKRYCIIIDGWWRRAALEDHLREFIVEFCYEEDANTRSHVRKRNMGMEDDLLLVEIFNKLQSCPLYQLLLEHALESGETQDLLCSVNTLSEMLTSNNEIQLPSLHDELFTQFFAQLKVYCGADNTDYEDEPEPDKDYEDLTVCNRQGIRNHELFAIFTQPLVEQRLERQRERLKSNPVLMANILKRLERSTCLQLKSELPEALREILRRRQWLANEYAIRAYCKETQVAEKMRFLRHTMLLEKYYLFVPYYNALFVRMEKNNSWALGSVLTSKLCAVLLPHYPQLAHYLHVKLISQINSNSIKVYEALEAIELDFERPMAMHQWYILTPAHMQDYNSVWRLMLKVKWAVWKLENMQFLRRARFNPCAPLDLIGLTIRRLEIVRFWLIFLINNLHAHIMEAVSRQFELRIGECKNVRELRIMHDEHLAWLKTHCMLTDEFKAFRVALDQIFHLVYVLDMEWTTCASCMHDHDALCLDFTISDDGIDDSETQRRSLEYLALNQVAEIELTYIRCHQMLADILNTLVHQNDHGFLSALEETINSSVPH”, for which the protein production result was “failed”.
